We go through one molecule from patent publication US20240376207A1 (JIANGSU HENGRUI PHARMACEUTICALS, published 2024).

Assay [1] concerns the target T1, human PVRIG expressed on cells (human, UniProt Q6DKI7 41-326).
T1 sequence (looked up): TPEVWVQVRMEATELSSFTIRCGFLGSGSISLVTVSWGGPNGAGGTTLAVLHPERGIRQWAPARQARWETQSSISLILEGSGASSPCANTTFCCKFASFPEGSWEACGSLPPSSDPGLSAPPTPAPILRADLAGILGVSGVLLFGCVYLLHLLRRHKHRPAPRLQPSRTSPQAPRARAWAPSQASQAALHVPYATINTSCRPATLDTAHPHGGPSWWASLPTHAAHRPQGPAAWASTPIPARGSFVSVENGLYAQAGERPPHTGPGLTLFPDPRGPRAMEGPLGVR
Briefly: cell-based or functional assay.

In assay [2] the target is T1, human PVRIG expressed on cells. The assay can be described thus: FACS, HEK293 cells overexpressing target. The method, then:
The expression plasmid carrying human or cynomolgus monkey PVRIG gene sequence was transfected into HEK293 cells, and the over-expressing stable transfection monoclonal cell strain was obtained by antibiotic screening and infinite dilution. Overexpressing cells were seeded into a 96-well plate at 2×10⁵ cells/per well. The cells were centrifuged at 300 g for 5 min, the supernatant was then removed, 100 μL of the test antibody was added, and the mixture was incubated at 4° C. for 1 h. The mixture was centrifuged, the supernatant was removed, the plate was washed 3 times with 200 μL of wash buffer (PBS+2% FBS), and then 100 μL of an anti-human IgG secondary antibody (Invitrogen, A-11013) labeled with Alexa Fluor 488 diluted at 1:500 was added. The mixture was incubated at 4° C. for 1 h. The plate was centrifuged, and the supernatant was removed. The plate was washed 3 times with 200 μL of wash buffer (PBS+2% FBS). The cells were resuspended in 100 μL of PBS and tested on a flow cytometer (BD FACS Calibur or BD FACS Canto_II).
Binding of the humanized anti-PVRIG antibodies to human or cynomolgus monkey PVRIG was detected by using a flow cytometer according to the method of Example 5.

Assay [3] addresses T2, mouse IgG2a Fc-tagged human PVRIG (h-PVRIG-mIgG2a Fc) recombinant protein (human, UniProt Q6DKI7 41-171, limits assumed).
T2 construct: bought from Acrobiosystems; not shown: mouse IgG2a Fc tag
T2 sequence (looked up): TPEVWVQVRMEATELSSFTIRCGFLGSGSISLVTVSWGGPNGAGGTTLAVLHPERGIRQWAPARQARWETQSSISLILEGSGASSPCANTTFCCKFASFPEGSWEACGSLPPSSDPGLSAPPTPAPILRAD
Briefly: competition ELISA; human PVRIG coated, competitor human PVRL2.

B1: positive antibody Tab5 (antibody, human IgG4 S228P, kappa, F234A L235A, V domains shown)
VH: EVQLVESGGGVVKPGGSLRLSCAASGFTFGTSSMNWVRQAPGKGLEWVAVISFDGTEIHYADSVKGRFTISRDNSKSTVFLQMNSLRPDDTALYYCAKGSGNIYFYSGMDVWGQGTTVTVSS
VL: DIQMTQSPSTLSASVGDRVTITCRAGQSISGWLAWFQQKPGKAPNLLIYETSTLESGVPSRFSGSGSGTEYTLTISSLQPDDFATYYCQQYYSYPLTFGQGTKVEIKR
notes: Variable regions of CPA.7.021 (WO2016134333A1) on human IgG4 (S228P/F234A/L235A/K447A) and human kappa constant regions
In the case of B1, in assay [1], the “PVRIG reporter gene cell activity EC50” value was 1.38 nM. Moreover, the EC50 in assay [2] was determined as 0.16 nM. Further, the IC50 in assay [3] came out at 0.797 nM.
